The results in this text go back to the supplement of paper PMC10724198.

± gives the standard deviation of the averaged measurements.
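Also: PSI is a weighted mean of sequencing reads over stability bins, variants kept only with over 10 reads, mCherry proximal and sfGFP distal, peptide attached via GGGS linker.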

The subject of this series is Saccharomyces cerevisiae. The series can be described thus: protein stability index of tFT-peptide fusion (C-terminal peptide) (PSI (0-1 scale)); higher = more stable (slower turnover). The conditions noted are these: genetic background: wild type; temperature: 30 C.
NGLACGSLTLLK yielded a protein stability index of 0.6738 ± 0.0019.
For NGPDAKTIEVRQ, the protein stability index worked out at 0.658 ± 0.048.
Next, NGRTYIDEESKI: 0.745 ± 0.16.
Next, NGVLRPMATGAP: 0.666 ± 0.039.
Next, NGYASLGGEPKR: 0.7576 ± 0.0041; NIHKNKKKGLKE: 0.686 ± 0.0088.
Consider NIKEKEIKRQVR, for which the protein stability index worked out at 0.693 ± 0.051.
Then NIKKLSHRTRRI, with 0.857 ± 0.2.
Then NINKINKKCTRV, with 0.645 ± 0.055.
Next, NKEYSLIIKTHN: 0.61529 ± 0.00011; NKISRDAVWNCR: 0.657 ± 0.053; NKKDKKMNKDKR: 0.6791 ± 0.0014.
In turn, NKNKKKKEKKSR registered a protein stability index of 0.725 ± 0.12.
Next, NKPRSYRVDKRQ: 0.615 ± 0.015.
Then NKRIRKIKKKCK, with 0.701 ± 0.065; and NKRSNIKVSDQR, with 0.691 ± 0.03.
Next, NKTKKKRTEPQP: 0.6616 ± 0.005; NKTNSKKSIFTV: 0.703 ± 0.01.
NLAVSFIVGGLW returned a protein stability index of 0.747 ± 0.026.
NLCPLPPPLLTS registered a protein stability index of 0.675 ± 0.035.
Next, NLINPCRRPPVP: 0.648 ± 0.088; NLRFTTSCNGPL: 0.649 ± 0.018; NLRGPEYVKRTD: 0.677 ± 0.021.
NLSYPSCDPPAT came in with a protein stability index of 0.5836 ± 0.0032.
Next, NNLSPLPGPSLI: 0.713 ± 0.018.
Next, NNSLKTTMVATK: 0.58 ± 0.065; NNYPHSEKCLKE: 0.643 ± 0.009.
Next, NPPALPPFSPSP: 0.708 ± 0.01; NPPCPYPPLRPR: 0.595 ± 0.044.
As to NPVYSFRAHRLG, the protein stability index came to 0.5128 ± 0.0037.
In the case of NRDIYQNWPKRK, the protein stability index is 0.831 ± 0.14.
Then NRGLYNLYRMSR, with 0.645 ± 0.0027.
Then NRHGRALPSLEA, with 0.644 ± 0.014; and NRNKKTKKKVII, with 0.6697 ± 0.0062; and NRRVSGPLCMQE, with 0.687 ± 0.054.
Next, NRSKNKKIIREI: 0.6341 ± 0.0056.
In turn, NRTRFLSLDTRP had a protein stability index of 0.719 ± 0.023.
Next, NSAPPPPHTPPP: 0.699 ± 0.018; NSSADRSTNPTQ: 0.649 ± 0.019; NSSLSLPFGPPP: 0.69 ± 0.011.
Then NSTPTTPPIPHQ, with 0.702 ± 0.091.
Next, NSTTNVKTQHTL: 0.731 ± 0.023.
As to NSTTQKKEQKQI, the protein stability index was 0.711 ± 0.043.
Next, NSVMSRGCGNRG: 0.626 ± 0.044; NTNSTRSDNVFD: 0.622 ± 0.011.
Then NTPHSRSLRSNH, with 0.695 ± 0.017.
Next, NTTTTKNRTPKR: 0.6952 ± 0.0063; NVACNGKGEQVL: 0.7268 ± 0.0011; NVCICSIRNATN: 0.804 ± 0.11.
Turning to NVENSNTAGKGV, the protein stability index amounted to 0.689 ± 0.024.
As for NVKPGKIRRRRG, the protein stability index worked out at 0.667 ± 0.14.
Next, NVLVSPFVPLSF: 0.724 ± 0.0089; NWAPRCCIGNII: 0.669 ± 0.12.
Next, NWIIARFVPIGL: 0.685 ± 0.041.
Turning to NYLLYSRRSVRV, the protein stability index stood at 0.532 ± 0.04.
PACPLISPIGRF had a protein stability index of 0.673 ± 0.05.
Then PADLCPPGSLSP, with 0.683 ± 0.01; and PADSRGNSPPPQ, with 0.675 ± 0.055.
Next, PAHPGRPPILGS: 0.597 ± 0.036.
Consider PAHRRLLPWPPA, for which the protein stability index was 0.71 ± 0.14.
Next, PAIPPPPTAAPT: 0.678 ± 0.087; PAKNKKKKKNRK: 0.6911 ± 0.0031; PALASHLAPLDP: 0.6958 ± 0.0049.
Next, PALPAPFLSSPH: 0.6737 ± 0.00099; PALPFPPLTAFH: 0.683 ± 0.036; PAPDATQRVRSQ: 0.645 ± 0.0089.
Next, PAPLPFPLPTSL: 0.757 ± 0.015; PAPPAPTHAPPL: 0.683 ± 0.11; PAPPCPGTSPFP: 0.7055 ± 0.001.
For the sequence PAPPFPPRPSPF, the protein stability index came out at 0.673 ± 0.056.
Then PAPPHPRIPSPT, with 0.669 ± 0.073; and PAPPLPLTPPPL, with 0.788 ± 0.014; and PAPPPLPPHSLP, with 0.718 ± 0.024.
In the case of PAPPPPPPPLYP, the protein stability index was 0.718 ± 0.013.
Next, PAPPPPPPTPPP: 0.646 ± 0.039; PAPPPPPPTTVL: 0.691 ± 0.03; PAPPPRDLPTPP: 0.664 ± 0.007.
Then PAPPPRRPPAPP, with 0.689 ± 0.017; and PAPPPSSPRSIH, with 0.674 ± 0.032.
Then PAPPSLAAPRGT, with 0.663 ± 0.0092.
PARLPSPSHPAS returned a protein stability index of 0.776 ± 0.063.
Then PARPLSRPPLPP, with 0.72 ± 0.052; and PARTSAPPSPLI, with 0.686 ± 0.0075; and PASEVLFMEFVT, with 0.753 ± 0.026.
Next, PASIVPPPPVPL: 0.777 ± 0.13; PASPFPQTCPPP: 0.737 ± 0.074; PASPHPPSPSPL: 0.604 ± 0.022.
In turn, PASPPPAPRPPP showed a protein stability index of 0.65 ± 0.0081.
PASPRDPLPRLP came in with a protein stability index of 0.764 ± 0.12.
Sequence PASYSAPVSLFI registered a protein stability index of 0.7035 ± 0.002.
With PATPPFSLPPPH, the protein stability index came out at 0.669 ± 0.025.
For PAVCIPLPARQL, the protein stability index came to 0.743 ± 0.026.
Next, PCIRRRSISTLP: 0.775 ± 0.11; PCLGATSNTGRY: 0.732 ± 0.045.
PCMLSEATQQAH: the protein stability index amounted to 0.668 ± 0.049.
Next, PCPPLPGILSSL: 0.674 ± 0.035; PCWPARVWVSFL: 0.504 ± 0.013.
Then PDASRRVPPPPD, with 0.663 ± 0.066; and PDDGLSAPPAAF, with 0.722 ± 0.14.
In turn, PDFPPSRTPPEF registered a protein stability index of 0.624 ± 0.022.
With PDGPSIVVPGQG, the protein stability index amounted to 0.678 ± 0.017.
For the sequence PDLTVYNLCGGC, the protein stability index was 0.774 ± 0.098.
Next, PDPPAPLPPHPV: 0.669 ± 0.053; PDRPPVARATRP: 0.719 ± 0.017; PDRPYPPPLVAR: 0.694 ± 0.058.
Then PDSLHTLRPPPP, with 0.653 ± 0.022; and PEDRCLDLLILC, with 0.5236 ± 0.004.
Next, PEPMYHNSLFRP: 0.737 ± 0.018; PERPDPPVNDRN: 0.62 ± 0.029.
PETIIENIMKRR displayed a protein stability index of 0.688 ± 0.22.
Next, PFCYALPWAPPR: 0.644 ± 0.076.
Then PFFRASFSGLID, with 0.681 ± 0.061.
Then PFIYSLPAPLPF, with 0.72 ± 0.035; and PFLHQRLLDSVL, with 0.726 ± 0.1.
PFLLPPLPPGPL: the protein stability index was 0.706 ± 0.062.
In turn, PFLPSPHPSPSS displayed a protein stability index of 0.713 ± 0.022.
